According to paper PMC9631798, “Engineered human cytokine/antibody fusion proteins expand regulatory T cells and confer autoimmune disease protection” (Cell reports, 2022):

Key:
Biotinylated human IL-2 = target: T1, Biotinylated human IL-2 (Homo sapiens, UniProt P60568, biotin on the biotin acceptor peptide (BirA ligase)); experiment: BLI; biotinylated hIL-2, hIL-2Rα or hIL-2Rβ immobilised on streptavidin biosensors; serial dilutions of analyte in PBSA (PBS pH 7.2, 0.1% BSA); 300 s association, 600 s dissociation; equilibrium titration, first-order fit; F5111 IC LN25 and LN35 as SEC peak P3, LN15 as majority peak; cytokine/antibody complexes pre-formed at 1:1 molar ratio, 60 minutes at 37°C; conditions: both partners purified
T1 construct: human interleukin-2; limits not restated for this construct (hIL-2 is residues 1-133 in the other constructs); the hexahistidine tag follows the BAP; also called biotinylated hIL-2; hIL-2 (immobilised); source: HEK 293F (gWiz vector), purified (Ni-NTA, SEC), biotinylated with BirA

[1] = target: T2, yeast-displayed hIL-2 (residues 1-133) (human, UniProt P60568); experiment: flow cytometry on cells; yeast surface display: hIL-2 or mIL-2 displayed on yeast (Aga2 fusion); serial dilutions of recombinant F5111 antibody, 2 hours at room temperature in PBE (PBS, 0.1% BSA, 1 mM EDTA); detected with anti-human IgG Fc APC; first-order binding model; conditions: one partner purified
T2 construct: human interleukin-2, residues 1-133; a 3C protease site lies between Aga2 and the cytokine; not shown: Aga2 (yeast agglutinin protein), N-terminal, kept

[2] = target: T3, yeast-displayed mIL-2 (residues 1-149) (Mus musculus, UniProt P04351); experiment: as above; conditions: one partner purified
T3 construct: mouse interleukin-2, residues 1-149; a 3C protease site lies between Aga2 and the cytokine; also called mouse IL-2; not shown: Aga2 (yeast agglutinin protein), N-terminal, kept
T3 sequence (P04351 21-169): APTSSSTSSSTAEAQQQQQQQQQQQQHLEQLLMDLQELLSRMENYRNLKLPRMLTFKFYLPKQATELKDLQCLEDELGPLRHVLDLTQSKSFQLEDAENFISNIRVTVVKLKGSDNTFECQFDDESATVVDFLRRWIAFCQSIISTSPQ

T1 sequence (P60568 21-153): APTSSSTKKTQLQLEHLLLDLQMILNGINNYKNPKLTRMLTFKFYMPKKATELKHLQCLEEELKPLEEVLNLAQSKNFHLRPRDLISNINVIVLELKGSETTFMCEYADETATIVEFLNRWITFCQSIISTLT
T2 sequence (P60568 21-153): as above

| binding result (Biotinylated human IL-2) | binding result [1] | binding result [2] | Binder |
| --- | --- | --- | --- |
| binds | binds | no binding | F5111 antibody (antibody, V domains shown, human IgG1 constant heavy chain; human lambda constant chain; human IgG1 lambda; anti-hIL-2; also called F5111 Ab; F5111 human immunoglobulin G1 (IgG1) antibody; source: HEK 293F, transient co-transfection of HC and LC plasmids, purified (protein G, SEC); copies: 2 + 2) VH: QLQLQESGPGLVKPSQTLSLTCTVSGGSISSGGYYWSWIRQHPGKGLEWIGYIYYSGSTYYNPSLKSRVTISVDTSKNQFSLKLSSVTAADTAVYYCARTPTVTGDWFDPWGRGTLVTVSS VL: NFMLTQPHSVSESPGKTVTISCTRSSGSIASNYVQWYQQRPGSSPTTVIYEDNQRPSGVPDRFSGSIDSSSNSASLTISGLKTEDEADYYCQSYDSSNVVFGGGTKLTVL |
| binds | – | – | F5111.2 Antibody (N297A) (antibody, V domains shown, as the VH of m21 (F5111.2; human IgG1 constant heavy chain with N297A in the Fc region; 297 is EU numbering); as the VL of m21 (F5111.2); human lambda constant chain; in all studies the F5111.2 antibody includes N297A; the isotype platform is stated for F5111 only; source: HEK 293F, transient co-transfection, purified (protein G, SEC); copies: 2 + 2) VH: QLQLQESGPGLVKPSQTLSLTCTVSGGSISSGGYYWSWIRQHPGKGLEWIGYIYKSGSAYYSPSLKSRVTISVDTSKNQFSLKLSSVTAADTAVYYCARTPTVTGDWFDPWGRGTLVTVSS VL: NFMLTQPHSVSESPGKTVTISCTRSSGSIASNYVQWYQQRPGSSPTTVIYEDNQRPSGVPDRFSGSIDSSSNSASLTISGLKTEDEADYYCQTYDSIDVYFGGGTKLTVL |
